The record followed here is patent publication US20080044425A1, “POLYPEPTIDES HAVING PHOSPHOLIPASE A2 ACTIVITY” (KYOWA HAKKO KOGYO CO., LTD., priority 2000, published 2008).

This experiment can be described thus: Measurement of PLA2 activity in the soluble fraction of insect cells (Sf9) expressing the human-derived polypeptide. The experiment is classed as biochemical. As to conditions: 4 mmol/l calcium chloride, 37° C., 2 hours, control: pVL1393 vector virus, FIG. 10. The method, then:
The supernatant containing the virus recovered in (2) above (2 ml) was added to 28 ml of 1.5×10^6/ml suspending Sf9 cells, and the cells were cultured at 27° C. for 4 days in the suspending state. The cells were recovered by centrifugation at 800 rpm for 5 minutes and washed with phosphate-buffered saline (PBS). The resulting cells were suspended in a buffer consisting of 25 mmol/l Tris-HCl (pH 7.5), 140 mmol/l sodium chloride, 5 mmol/l potassium chloride, 2 mmol/l EDTA and 1× complete, EDTA-free (Boehringer Mannheim) and disrupted on ice using a sonicator. The extract was centrifuged at 15,000 rpm for 15 minutes, and the supernatant was used for the measurement of PLA2 activity.
One hundred μl of a reaction solution [100 mmol/l Tris-HCl (pH 7.5), 4 mmol/l calcium chloride, 1 mg/ml bovine serum albumin (substantially fatty acid-free, Sigma) and 8 μmol/l Triton X-100] containing 1-palmitoyl-2-[1-^14C]arachidonyl-phosphatidylcholine (48 mCi/mmol, Daiichi Kagaku Yakuhin) (2 μmol/l) and the supernatant obtained above was incubated at 37° C. for 2 hours, followed by the addition of Dole reagent (containing 2-propanol, heptane and sulfuric acid at a ratio of 78:20:2) to stop the reaction. To the reaction mixture were further added 0.3 ml of heptane and 0.2 ml of water, and mixing was effected by rotation. […] The amount of the polypeptide was determined using the Bio Rad Protein Assay method. […]

B1: human-derived polypeptide of the present invention: novel human cytoplasmic phospholipase A2 polypeptide having the amino acid sequence shown in SEQ ID NO: 1, Flag-tagged, expressed in insect cells (protein, listed as Homo sapiens)
chain: MLWALWPRWLADKMLPLLGAVLLQKREKRGPLWRHWRRETYPYYDLQVKVLRATNIRGTDLLSKADCYVQLWLPTASPSPAQTRIVANCSDPEWNETFHYQIHGAVKNVLELTLYDKDILGSDQLSLLLFDLRSLKCGQPHKHTFPLNHQDSQELQVEFVLEKSQVPASEVITNGVLVAHPCLRIQGTLRGDGTAPREEYGSGQLQLAVPGAYEKPQLLPLQPPTEPGLPPTFTFHVNPVLSSRLHVELMELLAAVQSGPSTELEAQTSKLGEGGILLSSLPLGQEEQCSVALGEGQEVALSMKVEMSSGDLDLRLGFDLSDGEQEFLDRRKQVVSKALQQVLGLSEALDSGQVPVVAVLGSGGGTRAMSSLYGSLAGLQELGLLDTVTYLSGVSGSTWCISTLYRDPAWSQVALQGPIERAQVHVCSSKMGALSTERLQYYTQELGVRERSGHSVSLIDLWGLLVEYLLYQEENPAKLSDQQEAVRQGQNPYPIYTSVNVRTNLSGEDFAEWCEFTPYEVGFPKYGAYVPTELFGSELFMGRLLQLQPEPRICYLQGMWGSAFATSLDEIFLKTAGSGLSFLEWYRGSVNITDDCQKPQLHNPSRLRTRLLTPQGPFSQAVLDIFTSRFTSAQSFNFTRGLCLHKDYVAGREFVAWKDTHPDAFPNQLTPMRDCLYLVDGGFAINSPFPLALLPQRAVDLILSFDYSLEAPFEVLKMTEKYCLDRGIPFPSIEVGPEDVEEARECYLFAKAEDPRSPIVLHFPLVNRTFRTHLAPGVERQTAEEKAFGDFVINRPDTPYGMMNFTYEPQDFYRLVALSRYNVLNNVETLKCALQLALDRHQARERAGA
modifications: Flag tag
Turning to B1, the “PLA2 activity that hydrolyzes the ester bond at the sn-2-position in 1-palmitoyl-2-arachidonyl-phosphatidylcholine” value is “has PLA2 activity”.
